# Reference: paper PMC5912162 (Bioconjugate chemistry, 2010)
# Columns and labels:
# [1] = in vivo; settings: mouse, iv, 2 nmol, total radioactivity, Tissue distribution
# [2] = test system: KRAS2 G12D 20-mer RNA; settings: cited from earlier work
# [3] = mouse, in vivo
# [4] = in vivo; settings: mouse, iv, total radioactivity
# [5] = test system: human CAPAN2 (G12 V) pancreatic cancer xenografts; settings: mouse, in vivo
Compound,tissue uptake at 24 h ([1]; blood) [%ID/g],tissue uptake at 24 h ([1]; heart) [%ID/g],tissue uptake at 24 h ([1]; intestine) [%ID/g],tissue uptake at 24 h ([1]; kidneys) [%ID/g],tissue uptake at 24 h ([1]; liver) [%ID/g],tissue uptake at 24 h ([1]; lungs) [%ID/g],tissue uptake at 24 h ([1]; muscle) [%ID/g],tissue uptake at 24 h ([1]; spleen) [%ID/g],tissue uptake at 24 h ([1]; tumor) [%ID/g],Tm [2] [°C],Breakdown fragments in urine [3],"Free 111In (void volume peak) in urine, share of radioactivity [3]","Intact probe peak (eluting at 9 min) in urine, share of radioactivity [3]",tissue to tissue ratio at 24 h [4],Decrease of K/T ratio by added Gdn probes [5],Decrease of kidney accumulation by added Gdn probes [5] [fold]
"Cc1cn(CC(=O)N(CCNC(=O)CN(CCNC(=O)CN(CCNC(=O)CN(CCNC(=O)CN(CCNC(=O)CN(CCNC(=O)CN(CCNC(=O)CN(CCNC(=O)CN(CCNC(=O)CN(CCNC(=O)COCCOCCNC(=O)COCCOCCNC(=O)[C@H](CNC(=O)COCCOCCNC(=O)CN2CCN(CC(=O)O)CCN(CC(=O)O)CCN(CC(=O)O)CC2)NC(=O)COCCOCCNC(=O)CN2CCN(CC(=O)O)CCN(CC(=O)O)CCN(CC(=O)O)CC2)C(=O)Cn2cnc3c(=O)[nH]c(N)nc32)C(=O)Cn2ccc(N)nc2=O)C(=O)Cn2ccc(N)nc2=O)C(=O)Cn2cnc3c(N)ncnc32)C(=O)Cn2cnc3c(N)ncnc32)C(=O)Cn2ccc(N)nc2=O)C(=O)Cn2cnc3c(N)ncnc32)C(=O)Cn2cnc3c(=O)[nH]c(N)nc32)C(=O)Cn2ccc(N)nc2=O)CC(=O)NCCN(CC(=O)NCCN(CC(=O)NCCOCCOCC(=O)N[C@@H]2CSSC[C@H](C(N)=O)NC(=O)[C@@H](CCCCN)NC(=O)[C@@H](CO)NC2=O)C(=O)Cn2ccc(N)nc2=O)C(=O)Cn2ccc(N)nc2=O)c(=O)[nH]c1=O [WT5204, (DOTA-AEEA)2-PDAP^1-AEEA2-GCCAaCAGCTCC-AEEA-D(Cys-Ser-Lys-Cys)]",0.049 ± 0.005,0.042 ± 0.004,0.079 ± 0.008,19 ± 2.34,0.248 ± 0.033,0.093 ± 0.009,0.046 ± 0.006,0.105 ± 0.012,0.144 ± 0.014,68.0 ± 1.2,,,,,,
"Cc1cn(CC(=O)N(CCNC(=O)CN(CCNC(=O)CN(CCNC(=O)CN(CCNC(=O)CN(CCNC(=O)CN(CCNC(=O)CN(CCNC(=O)CN(CCNC(=O)CN(CCNC(=O)CN(CCNC(=O)COCCOCCNC(=O)COCCOCCNC(=O)[C@H](CNC(=O)COCCOCCNC(=O)CN2CCN(CC(=O)O)CCN(CC(=O)O)CCN(CC(=O)O)CC2)NC(=O)COCCOCCNC(=O)CN2CCN(CC(=O)O)CCN(CC(=O)O)CCN(CC(=O)O)CC2)C(=O)Cn2cnc3c(=O)[nH]c(N)nc32)C(=O)Cn2ccc(N)nc2=O)C(=O)Cn2ccc(N)nc2=O)C(=O)Cn2cnc3c(N)ncnc32)C(=O)Cn2cc(C)c(=O)[nH]c2=O)C(=O)Cn2ccc(N)nc2=O)C(=O)Cn2cnc3c(N)ncnc32)C(=O)Cn2cnc3c(=O)[nH]c(N)nc32)C(=O)Cn2ccc(N)nc2=O)CC(=O)NCCN(CC(=O)NCCN(CC(=O)NCCOCCOCC(=O)N[C@@H]2CSSC[C@H](C(N)=O)NC(=O)[C@@H](CCCCN)NC(=O)[C@@H](CO)NC2=O)C(=O)Cn2ccc(N)nc2=O)C(=O)Cn2ccc(N)nc2=O)c(=O)[nH]c1=O [WT5195, (DOTA-AEEA)2-PDAP^1-AEEA2-GCCAtCAGCTCC-AEEA-D(Cys-Ser-Lys-Cys)]",0.02 ± 0.01,0.028 ± 0.008,0.048 ± 0.007,18.4 ± 1.89,0.147 ± 0.015,0.217 ± 0.257,0.038 ± 0.007,0.079 ± 0.006,0.135 ± 0.034,78.7 ± 0.6,not detected,less than 1%,more than 99%,,,
"Cc1cn(CC(=O)N(CCNC(=O)CN(CCNC(=O)CN(CCNC(=O)CN(CCNC(=O)CN(CCNC(=O)CN(CCNC(=O)CN(CCNC(=O)CN(CCNC(=O)CN(CCNC(=O)CN(CCNC(=O)COCCOCCNC(=O)COCCOCCNC(=O)[C@H](CNC(=O)[C@H](CNC(=O)[C@H](CNC(=O)COCCOCCNC(=O)CN2CCN(CC(=O)O)CCN(CC(=O)O)CCN(CC(=O)O)CC2)NC(=O)COCCOCCNC(=O)CN2CCN(CC(=O)O)CCN(CC(=O)O)CCN(CC(=O)O)CC2)NC(=O)[C@H](CNC(=O)COCCOCCNC(=O)CN2CCN(CC(=O)O)CCN(CC(=O)O)CCN(CC(=O)O)CC2)NC(=O)COCCOCCNC(=O)CN2CCN(CC(=O)O)CCN(CC(=O)O)CCN(CC(=O)O)CC2)NC(=O)[C@H](CNC(=O)[C@H](CNC(=O)COCCOCCNC(=O)CN2CCN(CC(=O)O)CCN(CC(=O)O)CCN(CC(=O)O)CC2)NC(=O)COCCOCCNC(=O)CN2CCN(CC(=O)O)CCN(CC(=O)O)CCN(CC(=O)O)CC2)NC(=O)[C@H](CNC(=O)COCCOCCNC(=O)CN2CCN(CC(=O)O)CCN(CC(=O)O)CCN(CC(=O)O)CC2)NC(=O)COCCOCCNC(=O)CN2CCN(CC(=O)O)CCN(CC(=O)O)CCN(CC(=O)O)CC2)C(=O)Cn2cnc3c(=O)[nH]c(N)nc32)C(=O)Cn2ccc(N)nc2=O)C(=O)Cn2ccc(N)nc2=O)C(=O)Cn2cnc3c(N)ncnc32)C(=O)Cn2cnc3c(N)ncnc32)C(=O)Cn2ccc(N)nc2=O)C(=O)Cn2cnc3c(N)ncnc32)C(=O)Cn2cnc3c(=O)[nH]c(N)nc32)C(=O)Cn2ccc(N)nc2=O)CC(=O)NCCN(CC(=O)NCCN(CC(=O)NCCOCCOCC(=O)N[C@@H]2CSSC[C@H](C(N)=O)NC(=O)[C@@H](CCCCN)NC(=O)[C@@H](CO)NC2=O)C(=O)Cn2ccc(N)nc2=O)C(=O)Cn2ccc(N)nc2=O)c(=O)[nH]c1=O [WT8910, (DOTA-AEEA)8-PDAP^3-AEEA2-GCCAaCAGCTCC-AEEA-D(Cys-Ser-Lys-Cys)]",0.012 ± 0.002,0.037 ± 0.006,0.043 ± 0.006,13.9 ± 2.11,0.104 ± 0.015,0.207 ± 0.031,0.03 ± 0.004,0.056 ± 0.009,0.113 ± 0.014,66.9 ± 0.5,,,,6.5 ± 1,more than 5 fold,2
(Gd-DOTA-AEEA)2-PDAP^1-AEEA2-GCCAaCAGCTCC-AEEA-D(Cys-Ser-Lys-Cys) (disulfide) [WT5512],,,,,,,,,,68.0 ± 1.0,,,,,,
"Cc1cn(CC(=O)N(CCNC(=O)CN(CCNC(=O)CN(CCNC(=O)CN(CCNC(=O)CN(CCNC(=O)CN(CCNC(=O)CN(CCNC(=O)CN(CCNC(=O)CN(CCNC(=O)CN(CCNC(=O)COCCOCCNC(=O)COCCOCCNC(=O)[C@H](CNC(=O)[C@H](CNC(=O)[C@H](CNC(=O)COCCOCCNC(=O)CN2CCN(CC(=O)O)CCN(CC(=O)O)CCN(CC(=O)O)CC2)NC(=O)COCCOCCNC(=O)CN2CCN(CC(=O)O)CCN(CC(=O)O)CCN(CC(=O)O)CC2)NC(=O)[C@H](CNC(=O)COCCOCCNC(=O)CN2CCN(CC(=O)O)CCN(CC(=O)O)CCN(CC(=O)O)CC2)NC(=O)COCCOCCNC(=O)CN2CCN(CC(=O)O)CCN(CC(=O)O)CCN(CC(=O)O)CC2)NC(=O)[C@H](CNC(=O)[C@H](CNC(=O)COCCOCCNC(=O)CN2CCN(CC(=O)O)CCN(CC(=O)O)CCN(CC(=O)O)CC2)NC(=O)COCCOCCNC(=O)CN2CCN(CC(=O)O)CCN(CC(=O)O)CCN(CC(=O)O)CC2)NC(=O)[C@H](CNC(=O)COCCOCCNC(=O)CN2CCN(CC(=O)O)CCN(CC(=O)O)CCN(CC(=O)O)CC2)NC(=O)COCCOCCNC(=O)CN2CCN(CC(=O)O)CCN(CC(=O)O)CCN(CC(=O)O)CC2)C(=O)Cn2cnc3c(=O)[nH]c(N)nc32)C(=O)Cn2ccc(N)nc2=O)C(=O)Cn2ccc(N)nc2=O)C(=O)Cn2cnc3c(N)ncnc32)C(=O)Cn2cc(C)c(=O)[nH]c2=O)C(=O)Cn2ccc(N)nc2=O)C(=O)Cn2cnc3c(N)ncnc32)C(=O)Cn2cnc3c(=O)[nH]c(N)nc32)C(=O)Cn2ccc(N)nc2=O)CC(=O)NCCN(CC(=O)NCCN(CC(=O)NCCOCCOCC(=O)N[C@@H]2CSSC[C@H](C(N)=O)NC(=O)[C@@H](CCCCN)NC(=O)[C@@H](CO)NC2=O)C(=O)Cn2ccc(N)nc2=O)C(=O)Cn2ccc(N)nc2=O)c(=O)[nH]c1=O [WT8900, (DOTA-AEEA)8-PDAP^3-AEEA2-GCCAtCAGCTCC-AEEA-D(Cys-Ser-Lys-Cys)]",0.018 ± 0.001,0.035 ± 0.005,0.048 ± 0.004,29.6 ± 9.21,0.152 ± 0.012,0.096 ± 0.021,0.04 ± 0.01,0.075 ± 0.005,0.143 ± 0.011,75.9 ± 0.5,,,,,,
(Gd-DOTA-AEEA)8-PDAP^3-AEEA2-GCCAaCAGCTCC-AEEA-D(Cys-Ser-Lys-Cys) (disulfide) [WT10144],,,,,,,,,,66.8 ± 0.9,,,,,,
